T1: RESC1;RESC2 (Trypanosoma brucei;Trypanosoma brucei, UniProt Q57XL7;Q586X1 22-473;33-492, |)
T1 sequence 1: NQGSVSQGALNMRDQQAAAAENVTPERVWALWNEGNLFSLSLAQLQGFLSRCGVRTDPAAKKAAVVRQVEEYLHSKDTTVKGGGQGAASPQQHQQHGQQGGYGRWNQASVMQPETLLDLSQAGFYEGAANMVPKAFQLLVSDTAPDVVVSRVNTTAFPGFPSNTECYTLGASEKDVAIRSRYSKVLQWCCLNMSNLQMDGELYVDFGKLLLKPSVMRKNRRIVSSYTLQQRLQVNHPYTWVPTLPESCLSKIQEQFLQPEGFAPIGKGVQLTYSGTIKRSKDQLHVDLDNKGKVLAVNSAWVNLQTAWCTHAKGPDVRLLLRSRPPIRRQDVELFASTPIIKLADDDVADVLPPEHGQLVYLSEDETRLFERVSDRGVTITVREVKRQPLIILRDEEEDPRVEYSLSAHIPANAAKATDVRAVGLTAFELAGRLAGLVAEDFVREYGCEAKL
T1 sequence 2: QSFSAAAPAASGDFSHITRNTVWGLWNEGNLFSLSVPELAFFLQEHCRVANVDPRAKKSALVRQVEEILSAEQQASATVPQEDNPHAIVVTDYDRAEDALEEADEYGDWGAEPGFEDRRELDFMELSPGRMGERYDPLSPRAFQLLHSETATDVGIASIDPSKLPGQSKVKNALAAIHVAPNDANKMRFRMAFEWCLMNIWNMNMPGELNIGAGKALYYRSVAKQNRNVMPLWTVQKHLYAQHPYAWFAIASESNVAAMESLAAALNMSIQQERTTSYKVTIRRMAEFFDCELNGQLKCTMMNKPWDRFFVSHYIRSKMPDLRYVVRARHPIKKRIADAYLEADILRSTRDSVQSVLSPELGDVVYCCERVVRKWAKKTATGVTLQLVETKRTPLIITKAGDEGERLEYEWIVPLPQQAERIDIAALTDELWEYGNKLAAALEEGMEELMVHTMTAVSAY

B1: gRNA gND7(506), 5'-triphosphate (ssRNA)
RNA: GGGAUAUAAAUACGAUGUAAAUAACCUGUAGUAUAGUUAGUGUAUAUAGUGAAA
modifications: 5'-triphosphate
B2: gRNA gND7(506), 5'-hydroxyl (ssRNA)
RNA: B1 RNA
modifications: 5'-OH, no triphosphate

Experiments:
RESC1;RESC2 K311S/R402D = RESC1;RESC2 K311S/R402D (Trypanosoma brucei;Trypanosoma brucei, UniProt Q57XL7;Q586X1 22-473;33-492, |K311S;R402D); experiment: analytical SEC; SEC: 20 mM HEPES pH 7.5, 2 mM MgCl2, 1 mM DTT, variable NaCl; purification at 4 C; exact binding assay salt and temperature not in material; conditions: protein: recombinant;recombinant; tags: N-terminal 6xHis-3C (cleaved when needed);none; copies: 1;1
RESC1;RESC2 = target: T1, RESC1;RESC2; experiment: as above; conditions: protein: recombinant;recombinant; tags: N-terminal 6xHis-3C (cleaved when needed);none; copies: 1;1

Binder	binding result (RESC1;RESC2 K311S/R402D)	binding result (RESC1;RESC2)
B1	no binding	binds
B2		no binding
